By Kd is commonly meant a measure of binding affinity in units of concentration. Read a high Kd as weaker binding.

Ends that are not written are not given here.

What all share (test): fluorescence polarization
In assay [1] the target is T1, NCOA1 NR2 peptide (Homo sapiens).
T1 chain: Fluorescein-LTARHKILHRLLQEGSPSD

Assay [2] addresses T2, NCOA1 NR2 peptide (Homo sapiens).
T2 chain: Fluorescein-LTARHKILHRLLQEGSPSD

In assay [3] the target is T3, NCOA1 NR2 peptide (Homo sapiens).
T3 chain: Fluorescein-LTARHKILHRLLQEGSPSD

B1: VDR LBD 156-453 (protein)
chain: LSDEQMQIINSLVEAHHKTYDDSYSDFVRFRPPVREGPVTRSASRAASLHSLSDASSDSFNHSPESVDTKLNFSNLLMMYQDSGSPDSSEEDQQSRLSMLPHLADLVSYSIQKVIGFAKMIPGFRDLTAEDQIALLKSSAIEIIMLRSNQSFSLEDMSWSCGGPDFKYCINDVTKAGHTLELLEPLVKFQVGLKKLKLHEEEHVLLMAICLLSPDRPGVQDHVRIEALQDRLCDVLQAYIRIQHPGGRLLYAKMIQKLADLRSLNEEHSKQYRSLSFQPEHSMQLTPLVLEVFGSEVS
Turning to B1, the Kd was 540 nM with NCOA1 NR2 peptide [1], 480 nM with NCOA1 NR2 peptide [2] and 500 nM with NCOA1 NR2 peptide [3].

These data come from paper PMC11117473 (2024).
